We go through 16 molecules from patent US20190225687A1 (I MAB, published 2019).

Sequences and labels used below:
T1: LAG3 antigen of the Octet RED96 runs (UniProt P18627 23-450, limits assumed)
T1 sequence (looked up): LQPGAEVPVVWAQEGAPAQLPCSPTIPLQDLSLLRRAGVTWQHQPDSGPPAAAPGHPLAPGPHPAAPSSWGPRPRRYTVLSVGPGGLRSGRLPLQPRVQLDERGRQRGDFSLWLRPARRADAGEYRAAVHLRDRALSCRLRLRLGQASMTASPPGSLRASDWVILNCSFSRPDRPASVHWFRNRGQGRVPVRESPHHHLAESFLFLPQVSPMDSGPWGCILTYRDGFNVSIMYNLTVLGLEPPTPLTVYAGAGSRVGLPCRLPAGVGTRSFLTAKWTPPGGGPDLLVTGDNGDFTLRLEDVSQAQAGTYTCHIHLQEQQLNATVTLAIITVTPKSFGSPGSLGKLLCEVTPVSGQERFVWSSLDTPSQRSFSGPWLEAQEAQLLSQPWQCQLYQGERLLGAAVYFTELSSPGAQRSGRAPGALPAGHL

T2: human LAG3 of the LAG3 and MHC II binding assay kit (Cisbio, 64ICP03PEG) (human, UniProt P18627 23-450, limits assumed)
T2 construct: Bought kit reagent
T2 sequence (looked up): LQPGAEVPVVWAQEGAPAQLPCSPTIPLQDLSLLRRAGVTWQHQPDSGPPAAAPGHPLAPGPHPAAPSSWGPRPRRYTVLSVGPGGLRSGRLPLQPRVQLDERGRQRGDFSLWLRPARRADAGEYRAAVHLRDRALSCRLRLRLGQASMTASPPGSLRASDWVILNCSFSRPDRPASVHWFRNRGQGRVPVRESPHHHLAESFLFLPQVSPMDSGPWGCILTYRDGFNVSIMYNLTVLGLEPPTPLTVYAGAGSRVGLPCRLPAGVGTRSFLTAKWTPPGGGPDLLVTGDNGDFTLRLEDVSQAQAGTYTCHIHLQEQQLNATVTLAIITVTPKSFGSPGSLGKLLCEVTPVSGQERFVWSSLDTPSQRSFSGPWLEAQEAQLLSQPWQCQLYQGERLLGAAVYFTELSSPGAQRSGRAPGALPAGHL

B1: 147H-6 (antibody, V domains shown)
VH: QVQLVQSGAEVKKPGASVKVSCKASGYTFTNYWLGWIKQAPGQGLEWIGDIYPGGDYINYNEKFKGKATLTADTSISTAYMELSRLRSDDTAVYYCARPNLPGDYWGQGTTVTVSS
VL: DIVMTQSPLSLPVTPGEPASISCRSSKSLLHSNGITYLYWYLQKPGQSPQLLIYQVSNLASGVPDRFSGSGSGTDFTLKISRVEAEDVGVYYCAQNLELPWTFGGGTKVEIK
B2: 147H-13 (antibody, V domains shown)
VH: EVQLVQSGAEVKKPGASVKVSCKASGYTFTNYWLGWIKQAPGQGLEWIGDIYPGGDYINYNEKFKGKATLTADTSISTAYMELSRLRSDDTAVYYCARPNLPGDYWGQGTTVTVSS
VL: DIVMTQSPLSLPVTPGEPASISCRSSKSLLHSNGITYLYWYLQKPGQSPQLLIYQVSNLASGVPDRFSGSGSGTDFTLKISRVEAEDVGVYYCAQNLELPWTFGGGTKVEIK
notes: also called 147H4-13
B3: 147H 3669 (antibody, V domains shown)
VH: EVQLVQSGAEVKKPGASVKVSCKASGYLFTNYWLGWIKQAPGQGLEWIGDIYPGGDYIVYNEKFKGKATLTADTSISTAYMELSRLRSDDTAVYYCARPNLPGDYWGQGTTVTVSS
VL: DIVMTQSPLSLPVTPGEPASISCRSSKSLLHSNAITYLYWYLQKPGQSPQLLIYQVSNLASGVPDRFSGSGSGTDFTLKISRVEAEDVGVYYCAQNLELPWTFGGGTKVEIK
B4: 147H 3668 (antibody, V domains shown)
VH: EVQLVQSGAEVKKPGASVKVSCKASGYTFTNYWLGWIKQAPGQGLEWIGDIYPGGDYIVYNEKFKGKATLTADTSISTAYMELSRLRSDDTAVYYCARPNLPGDYWGQGTTVTVSS
VL: DIVMTQSPLSLPVTPGEPASISCRSSKSLLHSNAITYLYWYLQKPGQSPQLLIYQVSNLATGVPDRFSGSGSGTDFTLKISRVEAEDVGVYYCAQNLELPWTFGGGTKVEIK
B5: 147H 3792 (antibody, V domains shown)
VH: EVQLVQSGAEVKKPGASVKVSCKASGYTFTNYWLGWIKQAPGQGLEWIGDIYPGGDYIVYNEKFKGKATLTADTSISTAYMELSRLRSDDTAVYYCARPNLPGDYWGQGTTVTVSS
VL: DIVMTQSPLSLPVTPGEPASISCRSSKSLLHSNAITYLYWYLQKPGQSPQLLIYQVSNLASGVPDRFSGSGSGTDFTLKISRVEAEDVGVYYCAQYLELPWTFGGGTKVEIK
B6: 147H 3794 (antibody, V domains shown)
VH: EVQLVQSGAEVKKPGASVKVSCKASGYLFTNYWLGWIKQAPGQGLEWIGDIYPGGDYIVYNEKFKGKATLTADTSISTAYMELSRLRSDDTAVYYCARPNLPGDYWGQGTTVTVSS
VL: DIVMTQSPLSLPVTPGEPASISCRSSKSLLHSNAITYLYWYLQKPGQSPQLLIYQVSNLASGVPDRFSGSGSGTDFTLKISRVEAEDVGVYYCAQYLELPWTFGGGTKVEIK
B7: 147H 3811 (antibody, V domains shown)
VH: EVQLVQSGAEVKKPGASVKVSCKASGYLFTNYWLGWIKQAPGQGLEWIGDIYPGGDYIVYNEKFKGKATLTADTSISTAYMELSRLRSDDTAVYYCARPNLPKDHWGQGTTVTVSS
VL: DIVMTQSPLSLPVTPGEPASISCRSSKSLLHSNAITYLYWYLQKPGQSPQLLIYQVSNLATGVPDRFSGSGSGTDFTLKISRVEAEDVGVYYCGQYLELPWTFGGGTKVEIK
B8: 147H 3810 (antibody, V domains shown)
VH: EVQLVQSGAEVKKPGASVKVSCKASGYLFTNYWLGWIKQAPGQGLEWIGDIYPGGDYIVYNEKFKGKATLTADTSISTAYMELSRLRSDDTAVYYCARPNLPKDHWGQGTTVTVSS
VL: DIVMTQSPLSLPVTPGEPASISCRSSKSLLHSNAITYLYWYLQKPGQSPQLLIYQVSNLATGVPDRFSGSGSGTDFTLKISRVEAEDVGVYYCAQYLELPWTFGGGTKVEIK
notes: also called B3810
B9: 147H 3549 (antibody, V domains shown)
VH: EVQLVQSGAEVKKPGASVKVSCKASGYTFTNYWLGWIKQAPGQGLEWIGDIYPGGDYINYNEKFKGKATLTADTSISTAYMELSRLRSDDTAVYYCARPNLPKDHWGQGTTVTVSS
VL: DIVMTQSPLSLPVTPGEPASISCRSSKSLLHSNAITYLYWYLQKPGQSPQLLIYQVSNLASGVPDRFSGSGSGTDFTLKISRVEAEDVGVYYCAQYLEEPWTFGGGTKVEIK
B10: 147H 3663 (antibody, V domains shown)
VH: EVQLVQSGAEVKKPGASVKVSCKASGYTFENYWLGWIKQAPGQGLEWIGDIYPGGDYIVYNEKFKGKATLTADTSISTAYMELSRLRSDDTAVYYCARPNLPGDYWGQGTTVTVSS
VL: DIVMTQSPLSLPVTPGEPASISCRSSKSLLHSNAITYLYWYLQKPGQSPQLLIYQVSNLARGVPDRFSGSGSGTDFTLKISRVEAEDVGVYYCAQNLELPWTFGGGTKVEIK
B11: 147H 3809 (antibody, V domains shown)
VH: EVQLVQSGAEVKKPGASVKVSCKASGYLFTNYWLGWIKQAPGQGLEWIGDIYPGGDYIVYNEKFKGKATLTADTSISTAYMELSRLRSDDTAVYYCARPNLPKDHWGQGTTVTVSS
VL: DIVMTQSPLSLPVTPGEPASISCRSSKSLLHSNAITYLYWYLQKPGQSPQLLIYQVSNLASGVPDRFSGSGSGTDFTLKISRVEAEDVGVYYCAQYLELPWTFGGGTKVEIK
B12: 147H 3421 (antibody, V domains shown)
VH: EVQLVQSGAEVKKPGASVKVSCKASGYTFTNYWLGWIKQAPGQGLEWIGDIYPGGDYINYNEKFKGKATLTADTSISTAYMELSRLRSDDTAVYYCARPNLPKDHWGQGTTVTVSS
VL: DIVMTQSPLSLPVTPGEPASISCRSSKSLLHSNAITYLYWYLQKPGQSPQLLIYQVSNLASGVPDRFSGSGSGTDFTLKISRVEAEDVGVYYCAQNLELPWTFGGGTKVEIK
B13: 147H 3808 (antibody, V domains shown)
VH: EVQLVQSGAEVKKPGASVKVSCKASGYTFTNYWLGWIKQAPGQGLEWIGDIYPGGDYIVYNEKFKGKATLTADTSISTAYMELSRLRSDDTAVYYCARPNLPKDHWGQGTTVTVSS
VL: DIVMTQSPLSLPVTPGEPASISCRSSKSLLHSNAITYLYWYLQKPGQSPQLLIYQVSNLASGVPDRFSGSGSGTDFTLKISRVEAEDVGVYYCGQYLELPWTFGGGTKVEIK
B14: 147H 3807 (antibody, V domains shown)
VH: EVQLVQSGAEVKKPGASVKVSCKASGYTFTNYWLGWIKQAPGQGLEWIGDIYPGGDYIVYNEKFKGKATLTADTSISTAYMELSRLRSDDTAVYYCARPNLPKDHWGQGTTVTVSS
VL: DIVMTQSPLSLPVTPGEPASISCRSSKSLLHSNAITYLYWYLQKPGQSPQLLIYQVSNLASGVPDRFSGSGSGTDFTLKISRVEAEDVGVYYCAQYLELPWTFGGGTKVEIK
notes: also called B3807
B15: 147H 3550 (antibody, V domains shown)
VH: EVQLVQSGAEVKKPGASVKVSCKASGYTFTNYWLGWIKQAPGQGLEWIGDIYPGGDYINYNEKFKGKATLTADTSISTAYMELSRLRSDDTAVYYCARPNLPKDHWGQGTTVTVSS
VL: DIVMTQSPLSLPVTPGEPASISCRSSKSLLHSNAITYLYWYLQKPGQSPQLLIYQVSNLASGVPDRFSGSGSGTDFTLKISRVEAEDVGVYYCAQYLELPWTFGGGTKVEIK
B16: 147H 3508 (antibody, V domains shown)
VH: EVQLVQSGAEVKKPGASVKVSCKASGYTFTNYWLGWIKQAPGQGLEWIGDIYPGGDYINYNEKFKGKATLTADTSISTAYMELSRLRSDDTAVYYCARPNLPKDHWGQGTTVTVSS
VL: DIVMTQSPLSLPVTPGEPASISCRSSKSLLHSNAITYLYWYLQKPGQSPQLLIYQVSNLASGVPDRFSGSGSGTDFTLKISRVEAEDVGVYYCGQNLELPWTFGGGTKVEIK

For one test, the target named is T1, LAG3 antigen of the Octet RED96 runs. As to the kind of experiment: BLI, Octet RED96, full kinetics, antigen 3.125-50 nM. The protocol:
The binding affinity was calculated by software in Octet® RED96 System.
In general terms: BLI is a label-free optical method that tracks binding on a fibre tip over time.
Usually Kd stands for the equilibrium constant for the complex coming apart. The low end stands for a tighter complex, the high end for a looser complex. In general, koff refers to a measure of how fast the partners let go of each other. A high value points to a short-lived complex. One may read the kon as the rate constant with which the complex forms. Read a high kon as faster complex formation. As for B1, binding was characterised by a dissociation constant (Kd) of 26.5 nM, the koff was found to be 0.00312 s⁻¹ and the kon was 118000 M⁻¹ s⁻¹.

For the next test, the target named is T2, human LAG3 of the LAG3 and MHC II …. The experiment in a line: TR-FRET LAG3/MHC II binding assay (Cisbio); blocks MHC II. The method, then: To measure the ability of anti-LAG3 monoclonal antibodies to block the interaction between human LAG3 and MHCII, the LAG3 and MHC II binding assay (Cisbio, 64ICP03PEG) were performed utilizing homogeneous TR-FRET technology, following the protocol provided by the kit manufacturer. Anti-human LAG3 antibodies were 3-fold diluted ranging from 100 nM to 5 pM (10 points). Fluorescence data was acquired on a PerkinElmer Envision plate reader and a four-parameter dose-response curve was fitted to obtain IC50 of each antibody.
For orientation: In TR-FRET formats the signal depends on donor and acceptor labels being close together.
Broadly, the IC50 is the concentration that inhibits the measured activity by half. High values mean a need for much substance, low ones inhibition by little substance. On to B2, for which the IC50 fell in the range of 2.2 to 7.6 nM.

B3 showed an IC50 of 1.2 nM.

B4: the IC50 is 0.9 nM.

B5 registered an IC50 of 0.73 nM.

For the molecule B6, the IC50 was determined as 0.63 nM.

B7 had an IC50 of 0.59 nM.

B8 yielded a half-maximal inhibitory concentration (IC50) of 0.63 nM.

Molecule B9 showed an IC50 of 0.44 nM.

On to B10, for which the IC50 is 2.7 nM.

The molecule B11 returned an IC50 of 0.96 nM.

The molecule B12 displayed a 50% inhibitory concentration (IC50) of 1.5 nM.

Consider B13, for which the IC50 was determined as 0.5 nM.

B14 gave an IC50 of 0.31 nM.

B15 had an IC50 of 0.39 nM.

B16 yielded a half-maximal inhibitory concentration (IC50) of 0.55 nM.
